# From US20090029370A1 (TRUSTEES OF BOSTON UNIVERSITY, published 2009)
# B1: beta-fragment of EGFP (betaCys-fragment, 159-234 aa) without oligonucleotide (other)
# chain: not shown
# notes: range 159-234; also called β-subunit of EGFP
# Biological target: T1, alpha-fragment of EGFP (alphaCys-fragment, 1-158) without oligonucleotide (Aequorea victoria, UniProt P42212 1-158 = GFP)
# T1 construct: range 1-158; also called α-subunit of EGFP
# Assay: fluorescence spectra after mixing the fragments in vitro
binder,measurement,value
B1,binding result,no binding
